Source: paper doi:10.1101/2021.01.25.428026

Assays:
[1] = target: recombinant DJ-1 C46A mutant (human) (UniProt Q99497); experiment: non-reducing SDS-PAGE
[2] = target: recombinant DJ-1 C53A mutant (human) (UniProt Q99497); experiment: non-reducing SDS-PAGE

stoichiometry N [1] | stoichiometry N [2] | Substance
3 |  | recombinant DJ-1 C46A mutant (from UniProt Q99497 1-189) (natural protein)
 | 3 | recombinant DJ-1 C53A mutant (from UniProt Q99497 1-189) (natural protein)
